Source: PMC7642679

Key:
Assay in all cases: SEC
[1] = biological target: spike-6P D614G with the RBD replacement S373P (SARS-CoV-2)
[2] = biological target: spike-6P D614G with the RBD replacement A522V (SARS-CoV-2)
[3] = biological target: spike-6P D614G with the RBD replacement R408T (SARS-CoV-2)
[4] = biological target: spike-6P D614G with the RBD replacement E484Q (SARS-CoV-2)
[5] = biological target: spike-6P with the D614G substitution (SARS-CoV-2)
[6] = biological target: spike-6P D614G with the RBD replacement A419V (SARS-CoV-2)
[7] = biological target: spike-6P D614G with the RBD replacement F338L (SARS-CoV-2)
[8] = biological target: spike-6P (HexaPro) SARS-CoV-2 spike protein construct (SARS-CoV-2)
[9] = biological target: spike-6P D614G with the RBD replacement G446V (SARS-CoV-2)

“spike-6P D614G with the RBD replacement S373P” showed a stoichiometry N [1] of 3.
For “spike-6P D614G with the RBD replacement A522V”, the stoichiometry N [2] was 3.
Work on “spike-6P D614G with the RBD replacement R408T” yielded a stoichiometry N [3] of 3.
Work on “spike-6P D614G with the RBD replacement E484Q” yielded a stoichiometry N [4] of 3.
In the case of spike-6P with the D614G substitution, the stoichiometry N [5] is reported as 3.
In the case of “spike-6P D614G with the RBD replacement A419V”, the stoichiometry N [6] is reported as 3.
“spike-6P D614G with the RBD replacement F338L” gave a stoichiometry N [7] of 3.
In the case of “spike-6P (HexaPro) SARS-CoV-2 spike protein construct”, the stoichiometry N [8] is reported as 3.
“spike-6P D614G with the RBD replacement G446V” gave a stoichiometry N [9] of 3.
